Assay: yeast display, Sf9 membrane polyspecificity reagent, FACS + sequencing; frameworks hold sequencing errors
How it was run: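 Using colony PCR, genes from sorted yeast display clones were amplified, then sequenced on MiSeq at 2 × 250 and filtered by CDR length. The clones had been stained with 10% biotinylated, detergent-solubilized Sf9 membrane reagent for 1 hour at 4 °C and sorted by FACS into low and high (top ~1%) gates on anti-HA and streptavidin fluorescence. Polyreactivity labels come from the gate of origin.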

## QVQLVESGGGLVQAGGSLRLSCAASGITFAAYAMGWYRQAPGKERELVAAISTSGDSTYYADSVKGRFTISRDNAKNTVYLQMNSLKPEDTAVYYCAARAVRLSSSKVDYWGQGTQVTVSS
  polyreactivity (PSR sort gate): high polyreactivity

## HDQLVESGGGLVQAGGSLRLSCAASGFTFYRNAMGWYRQAPGQERELVAAITRGGSTTYADSVKGRFTISRANAKNTVYLQMISLKPDDTAVYYSAKVARADVPGYYKYYYWGQGTQVTVSS
  polyreactivity (PSR sort gate): high polyreactivity

## QVQIVESGGGLVQAGGSLRLSCAASGRTFVTYAMGWYRQAPGKERELVAAISRRGGSTYYADSVKGRFTISRDNAKNTVYLQMNSLKPEDTAVYYCAADPTYRTKFGYWGQGTQVTVSS
  polyreactivity (PSR sort gate): high polyreactivity

## QVQLVESGGGLVQAGGSLRLSCAASGSTFYTNAMGWYRQAPGKERELVAAINRSGGRTYYADSVKGRFTISRDNAKNTVYLQMISLKPEDTAVYYCAARYPLRISTDTARDYYWGQGTQVTVSS
  polyreactivity (PSR sort gate): low polyreactivity

## QVQLVESGGGLVQAGGSLRLSCAASGSTFTGNAMGWYRQAPGKERELVADISSGASTNYADSVKGRFTISRDNAKNTVYLQMNSLKPEDTAVFYCAADSWDYDSRMDYWGQGTQVTVSS
  polyreactivity (PSR sort gate): low polyreactivity

## QVQLVESGGGLVQAGGSLRLICAASGNTFYGYAMGWSRPAPGKERELVASITLSGDSTYYADSVKGRFTISRDNAKNTVYLQMNSLKPEDTAVYYCAGVYTYPLGYYHYTYDYWGQGTQVTVSS
  polyreactivity (PSR sort gate): low polyreactivity

## QVQHVESGGGLVQAGGSLRLSCAASVSIFGWKAMGWYRKAPGKERQLVAVITCAGSTNYADSVKGRFTISRDNAKNTVYLQMNSLKPEDTAVYYCAAENLGQGGNFAYFGYYYWGQGTQVTVSS
  polyreactivity (PSR sort gate): low polyreactivity

## QVQLVESGGGLVQAGGSLRLSCAASGRTFRYNTMGWYRQAPGKERELVAAITWSGGRTYYADSVKGRFTISRDNAKNTVYLQMNSLKPEDTAVYYCNADVPYSRSIYGFYYWGQGTQVTVSS
  polyreactivity (PSR sort gate): high polyreactivity

## QVQLVESGGGLVQAGGSLRLSCAASGYTFYVYAMGWYRQAPGKERELVADISTSDGSTYYADSVKGRFTISRDNAKNTVYLQMNSLKPEDTAVYYCNTDGSHGLYDWFWPANNDDWGQGTQVSVSS
  polyreactivity (PSR sort gate): low polyreactivity

## QVQLVESGGGLVQAGGSLRLSCAASGRISIIYAMGWYRQAPGKERELVARISGSGGSTNYADSVKGRFTISRDNAKNTVYLQMKSLKPEDTAVYYCAAVPWRIHKYYYWGQCTQVTVSS
  polyreactivity (PSR sort gate): high polyreactivity

## QVQLVESGGGLVQAGGSLRLSCAASGSIFFYYAMGWYSQAPGTERELVAAIRNGGSTKYADSVKGRFTISRDNAKNTVYLQMNSLKPEDTAVYYCAAGYPVTRRTIRFDYWGQGTQVTVSS
  polyreactivity (PSR sort gate): high polyreactivity

## QVQLVESGGGFVQAGGSLRLSCASSGRTFRLYAMGWYRQAPGKERELVDVIRSGDSTNYADSVKGRFTISSDNAKNTVYLQMNSVKPEDTAVYYCAADVLYYYGKYDYWGQGTQVTVSS
  polyreactivity (PSR sort gate): high polyreactivity

## QVQLVESGGGLVQAGGSLRLICAASGSIFFGNAMGWYRQAPGKERELDAAITLRGGSTYYADSVKGRFTISRDNAKNTVYLQMNSLKPEDTAVYYCNAVSKRYGYGYWGQGTQVTVSS
  polyreactivity (PSR sort gate): high polyreactivity

## QVQLVESGGGLVQAGGSLRLSCAASGRIFYYNTMGWYRQAPGKARELVAAITTNGGSTYYADSVKGRFTISRDNAKNTVYLQMNSPKPEDTAVYYCNRDRYPYYYAYNYWGQGTQVTVSS
  polyreactivity (PSR sort gate): low polyreactivity

## QVQLVESGGGFVQAGGSLRLSSAASGSTFYRYAMGWYRQAPGKEREFVAAISRSGGSTYYADSVKRRFTLSRDNAKNTVYLQMNSLKPEDTAVEYCNKYYWYPYGRAQDYGYWGQGTQVTVSS
  polyreactivity (PSR sort gate): high polyreactivity

## QVQLVESGGGLVQAGGSLRLSCAASGIIFDWYAMGGYRQAPGKERELVAAITSGGGSTYYADSVKGRFTISRDNAKNSVYLQMNSLKPEDSAVYYCAADYQTIGWGYDYWGQGTQVTVSS
  polyreactivity (PSR sort gate): low polyreactivity

## QVQLVESGGGLVQAGGSLRLSCAASGRTISINAMGWYRQAPGKERELVADISKSGGRTYYADSVKGRFTISRDNAKNTVYLQMNSLKPEDTAVYYCAKGAYYVPVIYHAVYSWGQGTQVTVSS
  polyreactivity (PSR sort gate): low polyreactivity

## QVQLVESGGGLVQAGGSLRLSCAASGSIFPLYAMGWSRQAPGKERELVAAITWRGGSTYYADSVKGRFTITRDNAKNTVYLQMNSLKPEDTAVYYCNRDLVPRFDYWGQGTQVTVSS
  polyreactivity (PSR sort gate): low polyreactivity

## QVQLVESGGGLVQAGGSLRLSCAASGIIFTIYTMGWYRQAPGKERELVAAITRSGGSTYYADSVKGRFTISRDNAKNTVYLQMNSLKPEDTAVYYCAAEWQYPDGDDVGSWRYYYWGQGTQVTVSS
  polyreactivity (PSR sort gate): high polyreactivity

## QVHLVESGGGLVQAGGSLRLSCAASGFTILTYGMGWYRQAPGKERELVAAIRWSGGRTYYADSVKGRFTISRDNAKNTVYLQMNSLKPEDTAVYYCAARYKFSTIRGVDYWGQGTQVTVSS
  polyreactivity (PSR sort gate): high polyreactivity

## QVQLQESGGGLVQAGGSLRLSCAASGNIYDADIMGWYRQAPAKERELVTSITDGGSTNYADSVKGRFTISRDNAKNTVYLQMNSLKPEDTAVYYCAAIAYPDIPTSFDYNSDYSYWGQGTQVTVSS
  polyreactivity (PSR sort gate): low polyreactivity

## QVQLVETGGGLVQAGGSLRLSCAASGSTFFINAMGWYRQAPGKERELVAAITSTDSTTYADSVKGRFTISRDNAKNTVYLQMNSLKPEDTAVYYCAKESIGQDPVSGAWARHEYDYWGQGTQVTVSS
  polyreactivity (PSR sort gate): low polyreactivity

## QVQIVESGGGLVQAGGSLRLSCAASGIIFPVYVMGWYRQAPGKERELVAAISKRGGSTYYADSVKGRFTISRDNAKNTVYLQMNSLKPEDTAVYYCAADRSRHSFYWEYDYWGQGTQVTVSS
  polyreactivity (PSR sort gate): high polyreactivity

## QVQLVESGGGLVQAGGILRLSCAASGSIFKYYAMGWYRQAPGKERELVADISFGGDSTYYADSVKGRFTISRDNAKNTVYLQMNSLIPEDTAVYYCAAARYFWFVEYDYWGQGTQVTVSS
  polyreactivity (PSR sort gate): low polyreactivity

## QVQLVESGGGLVQAGGSLRLSCAAYGSIFDHYAMVWNRQAPGKERELVAAITYSDGSTYYADSVKGRFTISRDNAKNTVYLQMKSLKPEDTAVYYCAAYPRGSQRYNYWGQGTQVTVSS
  polyreactivity (PSR sort gate): high polyreactivity

## QVQLVESGGGLVQAGGNLRLSCAASGLIFGGYAMGWYRPAPGKERELVAAISRTGGRTYYADSVKVRFTISRDNAKNTVYLQMNSLKPEDTAVYYCATKRWWVRYDYWGQGTQVTVSS
  polyreactivity (PSR sort gate): high polyreactivity

## QVQLVESGGCLVQAGGSLRLSCAASGFIFRYNAMGWYRQAPGKERELVAAISWSGTTYYADSVKGRFTISRDNAKNTVYLQMNSLKPEDTAVFYCAAGRLFYGYRDFDYWGQGTQVTVSS
  polyreactivity (PSR sort gate): low polyreactivity

## QVQLVESGGGLVQAGGSLRLSCAASGFIFYSYAMGWYRQAPGKERELVAAITYSGGSTYYADSVKGRFTISRDNAKNTVYLQMNSLKPEDTAVYYCADDYYHPGYIYEYWGQGTQVTVSS
  polyreactivity (PSR sort gate): low polyreactivity

## QVQLVESGGGLVQAGGSLRLSCASSGFTFSVYAMGWYREAPGKERELVAAITWRGGSTYYADSVKGRFTISRDNAKNTVYLQMNSLKPEDSAVYYCAVLYPKYGKRYGYWGQGTQVTVSS
  polyreactivity (PSR sort gate): high polyreactivity

## QVQLVESGGGLVQAGGSLRLSCAASGRIFGYYAMGWYRQAPGKERELVAAITWSGGTYYADSVKGRFTISRDNAKNTVYLQMNSLKPEDTAVYYCAKSVRNGWQSRFGYWGQGTQVTVSS
  polyreactivity (PSR sort gate): high polyreactivity

## QVQLVESGGGLVQAGGSLRLSCAASGSIFYYNTMAWYRQAPGKERELVAAIRQRGTSTYYADSVKGRFTISRDNAKNTVYLLMISLKPEDTAVYYCAAVTRGQSAYSYDYWGQGTKVTVSS
  polyreactivity (PSR sort gate): high polyreactivity

## QVQLVESGGGLVQAGGSLRLSCAASGSTFEYNAMGWYRQAPGKERELVASSTNYADSVKGRFTISRDNAKNTVYFQMNSLKPEDTAVYYCAREQGVNRNNDYWGQGTQVTVSS
  polyreactivity (PSR sort gate): low polyreactivity

## QVQLVESGGGLVQAGGSLRLSCAASGRTFIRYAMGWYRQAPRKEREMVAAISYSGGTTYYADSVKGRFTISRDNAKNTVYLQMNSLKPEDTAVYYCARAGGYPLSRYGYWGQGTQVTVSS
  polyreactivity (PSR sort gate): high polyreactivity

## QFQLEESGRGLVQAGGSLRLSCAASGSTLSYNAMGCYRQAPGKERELVAAISGRGGSTSYADSVKGRFTITRDNAKKTVYLQMNRLKPVDTAVYYCIAGKYSSSAALYDYWGQGTQVTVSS
  polyreactivity (PSR sort gate): high polyreactivity

## QVQLVESGGGLVQAGGSLRLSCAASGRTFGYYAMGWYRQAPGKERELVAALSTSGGSTHYADSVKGRFTISRDNAKNTVSLQMNSLKPEDTAVYYCNARLRTGTPYKYVSYNSWGQGTQVTVSS
  polyreactivity (PSR sort gate): high polyreactivity

## QVQLVESGGGLVQAGGSLRLSCAAAGSIFSGYAMGWSRQAPGKERELVAAISGSGGSTFYADSVKGRFTISRDNAKKTVYLQMNSLKPEDTAVYYCAARRIAPYARYDYWGQGTQVTVSS
  polyreactivity (PSR sort gate): low polyreactivity

## QDQLVESGGGLVQAGGSLRLSCAASGSIFGWYAMGWYRQAPGKERELVAAITWSGGSTYYADSVKGRFTISRDNAKNTVYLQMNSRKPEDTAVYYCAATYYGYVGRYDYWGQGTQVTVSS
  polyreactivity (PSR sort gate): high polyreactivity

## QVQLVESGGGLVQAGGSLRLSCAASGSTFPSYAMGWYRQAPGKERELVAAISRRSSRTYYADSVKGRFTISRDNAKNTVYLQMNSLKPEDTAVYYCNADAGRHSDEYGYDYWGQGTQVTVSS
  polyreactivity (PSR sort gate): high polyreactivity

## QVQLVESGRGLVQAGGSLRLSCAASGRIFRYYTMGWYRQAPGKERELVATISWNGSNTYYADSVKGRFTISRDNAKNTVYLQMNSLKPEDTAVYYCAAGVLPGLYNGARLFDYWGQGTQVTVSS
  polyreactivity (PSR sort gate): low polyreactivity

## QVQLVESGAGIVQAGGSLRLSCAASGSTFGRYAMGLYTQAPGKERELVAAISASGGSTYYADSVKGRFTISRDNAKTTVYLQMNSLTPEDTAVYYCAKDRPQTRLWYYFIDDYDYRGQGTQVTVSS
  polyreactivity (PSR sort gate): high polyreactivity

## QVQLVESGGGLVQAGGSLRLSGAASGRIFATNAMGWYRQAPGKETELVATITRSAGRTYYADSVKGRFTNSRDNAKNTVYLQMNSLKPEETAVYYCAASYWDTEPGYREYDYWGQGTQVTVSS
  polyreactivity (PSR sort gate): low polyreactivity

## QVQHVESGGRLVQAGGSLRLSCAASGSTLDVYAMGWYRQAPGKERELVAAISWSVGSTYYADSVKGRFKISRDNAKNTVYLQMNRLKPEDTAVYYCAAEPYEYAYFGYDYWGQGTQVTVSS
  polyreactivity (PSR sort gate): high polyreactivity

## QVQLVESGGGLVQAGGSLRLSCAASGNTFIRNVMGWYRQAPGKERELVAGIRTGGSTFYADSVKGRFTISRDNAKNTVYLQMNSLKPEDTAVYYCNADVGDEGNLPYVIRPMDYWGQGTQVTVSS
  polyreactivity (PSR sort gate): low polyreactivity

— the nanobody polyreactivity screen of Harvey et al. (2022)
